The text below walks through data of publication PMC8265659.

The target of data set [1] is T1, PorX-C-His6 (Porphyromonas gingivalis (33277?)) (UniProt B2RJJ3).
T1 sequence: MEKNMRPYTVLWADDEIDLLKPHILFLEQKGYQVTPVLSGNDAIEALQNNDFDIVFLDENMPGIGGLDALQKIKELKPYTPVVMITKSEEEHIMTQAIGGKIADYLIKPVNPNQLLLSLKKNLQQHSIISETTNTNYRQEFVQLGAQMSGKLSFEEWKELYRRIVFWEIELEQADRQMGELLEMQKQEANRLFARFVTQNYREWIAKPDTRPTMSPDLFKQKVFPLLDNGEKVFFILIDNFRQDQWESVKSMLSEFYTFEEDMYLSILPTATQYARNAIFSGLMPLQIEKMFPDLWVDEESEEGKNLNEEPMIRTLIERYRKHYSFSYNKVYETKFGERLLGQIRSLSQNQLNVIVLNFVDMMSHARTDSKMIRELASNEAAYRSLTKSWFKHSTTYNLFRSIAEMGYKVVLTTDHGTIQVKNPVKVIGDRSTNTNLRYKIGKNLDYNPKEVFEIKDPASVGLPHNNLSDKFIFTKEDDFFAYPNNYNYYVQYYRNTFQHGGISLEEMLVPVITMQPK
The data set can be described thus: DNase I footprinting. The conditions noted are these: EMSA: 10 mM Tris-HCl pH 7.5, 1 mM EDTA, 5 mM DTT, 10 mM NaCl, 1 mM MgCl2, 5% glycerol, room temperature, 30 min. (In general: In EMSA bound probe runs differently from free probe, usually more slowly.)

Data set [2] addresses T1, PorX-C-His6 (Porphyromonas gingivalis (33277?)). The data set can be described thus: EMSA. The conditions noted are these: EMSA: 10 mM Tris-HCl pH 7.5, 1 mM EDTA, 5 mM DTT, 10 mM NaCl, 1 mM MgCl2, 5% glycerol, room temperature, 30 min.

With “CCGAGTACGTTTACCCCGGCCCGATACAGTTCTTCGGCCCCGAACATGTATGCGATAGCCCCACGATGACACTCCGCTTGGAAAAGAACGATCGCTGACTCTTCCGCTGCATTAGTCGGGTTGATAAGCAGTTGCTTCTGTTTGTTTTGTCGAAAAAAATGTTTTTCTTTGCAATAAGTCTCATTTAAAAGAATCGCCTATCGACGCATATCTACCTTCTGAACAATAAATAAAGAGGATTCTCCTATGAGCAGTTTCCACAAGCTGACTGATGA (double strand) [T1 sigP promoter fragment (275 bp)]”, the binding entry in data set [1] and in data set [2] was “binds” throughout.
